The chains are these.
B1: recombinant MDM2 (mouse double minute 2 homolog) (domain or fragment)
chain: SQIPASEQETLVRPKPLLLKLLKSVGAQKDTYTMKEVLFYLGQYIMTKRLYDEKQQHIVYCSNDLLGDLFGVPSFSVKEHRKIYTMIYRNLVVVN
modifications: biotinylated in the TR-FRET assay
B2: synthetic D-MDM2 (domain or fragment)
chain: B1 chain
modifications: all residues D-amino acids; biotin at the N-terminus through a PEG12 linker
B3: recombinant CHIP (C-terminus of Hsc70-interacting protein) TPR domain (domain or fragment)
chain: GASPSAQELKEQGNRLFVGRKYPEAAACYGRAITRNPLVAVYYTNRALCYLKMQQHEQALADCRRALELDGQSVKAHFFLGQCQLEMESYDEAIANLQRAYSLAKEQRLNFGDDIPSALRIAKKKRWNSIEERR
modifications: biotinylated in the TR-FRET assay
B4: synthetic L-CHIP (TPR domain) (domain or fragment)
chain: SPSAQELKEQGNRLFVGRKYPEAAACYGRAITRNPLVAVYYTNRALCYLKMQQHEQALADCRRALELDGQSVKAHFFLGQCQLEMESYDEAIANLQRAYSLAKEQRLNFGDDIPSALRIAKKKRWNSIEERR
modifications: biotin at the N-terminus through a PEG12 linker
B5: synthetic D-CHIP (TPR domain) (domain or fragment)
chain: B4 chain
modifications: all residues D-amino acids; biotin at the N-terminus through a PEG12 linker

Where no end group is shown, it is not given here. [ ]: non-standard residue; d: D form.

Experiment [1] has as its target p53-derived model peptide, FAM-labelled (L-form) (UniProt P04637, 5(6)-carboxyfluorescein (FAM)). The experiment is described as follows: FRET.
The target of experiment [2] is p53-derived model peptide, FAM-labelled (D-form) (UniProt P04637, all residues D-amino acids; 5(6)-carboxyfluorescein (FAM)). The experiment is described as follows: FRET.
Chain of p53-derived model peptide, FAM-labelled (D-form) (P04637 whole entry, looked up, tested part not stated): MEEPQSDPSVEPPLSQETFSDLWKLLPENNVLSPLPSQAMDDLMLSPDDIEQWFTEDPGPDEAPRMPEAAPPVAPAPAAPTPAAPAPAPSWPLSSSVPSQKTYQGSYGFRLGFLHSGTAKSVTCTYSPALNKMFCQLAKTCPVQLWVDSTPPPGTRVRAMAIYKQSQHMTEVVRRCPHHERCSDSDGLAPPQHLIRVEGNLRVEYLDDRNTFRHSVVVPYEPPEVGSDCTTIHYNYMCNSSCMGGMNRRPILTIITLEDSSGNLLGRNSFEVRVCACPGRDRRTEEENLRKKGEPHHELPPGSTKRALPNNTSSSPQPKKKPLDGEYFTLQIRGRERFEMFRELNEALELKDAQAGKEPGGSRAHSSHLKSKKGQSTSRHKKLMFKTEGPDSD
Experiment [3] addresses FAM-Hsp70 peptide (peptide model of the heat shock protein 70 C-terminus), L-form (UniProt P0DMV8, 5(6)-carboxyfluorescein (FAM)). Put plainly: FRET.
Experiment [4] deals with B3. The experiment is described as follows: FP.
Experiment [5] concerns the target FAM-Hsp70 peptide (peptide model of the heat shock protein 70 C-terminus), D-form (UniProt P0DMV8, all residues D-amino acids; 5(6)-carboxyfluorescein (FAM)). Put plainly: FRET.

This passage reports Kd and IC50 results from paper PMC10901774 (2024).

Chain of FAM-Hsp70 peptide (peptide model of the heat shock protein 70 C-terminus), L-form (P0DMV8 whole entry, looked up, tested part not stated): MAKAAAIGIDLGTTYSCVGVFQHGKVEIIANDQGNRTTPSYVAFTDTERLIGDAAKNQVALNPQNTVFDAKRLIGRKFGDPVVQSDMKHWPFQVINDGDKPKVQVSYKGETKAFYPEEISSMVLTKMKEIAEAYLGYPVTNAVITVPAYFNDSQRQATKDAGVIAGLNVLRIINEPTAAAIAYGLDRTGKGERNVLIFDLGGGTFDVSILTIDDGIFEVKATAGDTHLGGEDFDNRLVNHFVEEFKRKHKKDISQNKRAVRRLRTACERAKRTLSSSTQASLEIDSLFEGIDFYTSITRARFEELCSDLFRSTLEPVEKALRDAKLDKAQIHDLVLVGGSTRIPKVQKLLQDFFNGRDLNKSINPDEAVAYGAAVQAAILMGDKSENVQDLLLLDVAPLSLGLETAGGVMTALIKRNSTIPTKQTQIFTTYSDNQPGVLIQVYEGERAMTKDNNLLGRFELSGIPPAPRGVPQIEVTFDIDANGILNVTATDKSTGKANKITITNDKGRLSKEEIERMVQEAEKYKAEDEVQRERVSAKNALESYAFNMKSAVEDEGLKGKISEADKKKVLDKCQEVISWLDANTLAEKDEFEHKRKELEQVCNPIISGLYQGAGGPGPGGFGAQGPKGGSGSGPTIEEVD
Chain of FAM-Hsp70 peptide (peptide model of the heat shock protein 70 C-terminus), D-form (P0DMV8 whole entry, looked up, tested part not stated): as above
Chain of p53-derived model peptide, FAM-labelled (L-form) (P04637 whole entry, looked up, tested part not stated): as the sequence (P04637 whole entry, looked up, tested part not stated) above

As a reminder, the Kd is the equilibrium constant for the complex coming apart. A lower Kd goes with higher affinity. Turning to B1, the Kd in experiment [1] came out at 10 nM.

Regarding B2, the dissociation constant Kd in experiment [2] is 13 nM.

As for B3, in experiment [3], the dissociation constant Kd was 4 µM.

By IC50 is commonly meant the concentration needed to halve the response being measured. As for [dP][dW][dW][dE][dC][dL][dS][dQ][dA][dD][dD][dC][dD][dF][dR] (staple (positions not given here)) [D-H202], in experiment [4], the IC50 turned out to be 1230 nM.

B4: binding in experiment [3] was characterised by a dissociation constant (Kd) of 3.8 µM.

Regarding B5, the dissociation constant (Kd) in experiment [5] came to 3.5 µM.
